Patent US20080124758A1, “Transmembrane domain removed recombinant human tyrosinase and method of producing the same” (Chung-Ang University Industry-Academy Cooperation Foundation, priority 2006, published 2008)
Read-outs that look alike come from different tables or passages of the source.

Tests used:
[1] = Tyrosine hydroxylase activity of human tyrosinase (method of Husain et al., fluorescence of L-dopa formed); format: biochemical; settings: for Increase of specific tyrosine hydroxylase activity of the His-bind purified enzyme compared to the crude extract: His-bind resin purified vs crude extract
Description: (§1) The measuring of the tyrosine hydroxylase activity was conducted according to a method of Husain et al. (Husain et al., J. Invest. Dermatol. 78: 243-252, 1982). Hydroxylation was conducted within an L-Dopa concentration range of 0-30 mM. A standard curve with respect to L-dopa was obtained. Using the standard curve, the amount of L-dopa produced after the reaction was determined. The reaction solution was prepared by adding 100 μM of L-tyrosine, L-dopa of each concentration, 4 mM of ascorbic acid and 100 μl of human tyrosinase into 50 mM Potassium phosphate buffer solution (pH 6.8) to obtain 2.5 ml of the solution. After that, the reaction was conducted at 37° C. for 3 hours. At this time, a reaction was conducted without adding the purified human tyrosinase as a control. The product was subjected to excitation at 360 nm and then was subjected to an emission at 490 nm by a method of Ram et al. (Ram et al., J. Biol. Chem. 267: 23707-23712, 1992). The intensity of the emission was measured. The measured value was converted into the concentration of L-dopa and the enzyme activity was measured. The specific activity with respect to the tyrosine hydroxylase activity of the purified human tyrosinase of the present invention was determined as the created mol number (mmol) of the L-dopa with respect to the amount of the enzyme (μg) per hour.

[2] = Influence of L-dopa concentration, Km by Lineweaver-Burk plot; format: biochemical; settings: L-dopa 0.05-5 mM
Description: The measurement of the dopa oxidase activity was conducted by the method of Fling et al. (Fling et al. J. Biol. Chem. 238: 2045-2053, 1963). The transformation of L-dopa which was the substrate of dopa oxidase into a brown product of dopachrome by tyrosinase was measured at 475 nm. […] 3 mM of L-dopa was added into 50 mM of tris-HCl buffer solution (pH 7.5) and incubated at 370 for 10 minutes. Then, 30 μl of human tyrosinase was added and the absorbance change was measured at 475 nm for 3 minutes. At this time, the unit of the activity of the enzyme was defined as follows. When 1 μmole of dopachrome was produced for 1 minute, this activity was defined as 1 unit (μmole/min). […]
The concentration of the substrate, L-tyrosine was given in a range of 0.01-1 mM, and the influence of the substrate concentration onto the recombinant human tyrosinase prepared by example 2 was evaluated. […] The Km value of the recombinant human tyrosinase according to the present invention was calculated by the Lineweaver-Burk Plot (Lineweaver et al., J. Am, Chem. Soc., 56; 658-666, 1934).
The concentration of L-dopa, which is another substrate of the human tyrosinase was given in a range of 0.05-5 mM and the influence of the substrate concentration with respect to the recombinant human tyrosinase prepared in example 2 was examined. The dopa oxidase activity is measured by the same method of experiment 2. […]

[3] = Dopa oxidase activity of human tyrosinase (method of Fling et al., dopachrome at 475 nm); format: biochemical
Description: The measurement of the dopa oxidase activity was conducted by the method of Fling et al. (Fling et al. J. Biol. Chem. 238: 2045-2053, 1963). The transformation of L-dopa which was the substrate of dopa oxidase into a brown product of dopachrome by tyrosinase was measured at 475 nm. […] 3 mM of L-dopa was added into 50 mM of tris-HCl buffer solution (pH 7.5) and incubated at 370 for 10 minutes. Then, 30 μl of human tyrosinase was added and the absorbance change was measured at 475 nm for 3 minutes. At this time, the unit of the activity of the enzyme was defined as follows. When 1 μmole of dopachrome was produced for 1 minute, this activity was defined as 1 unit (μmole/min). Specific activity was defined as 1 unit per 1 mg enzyme.

[4] = Influence of L-tyrosine concentration, Km by Lineweaver-Burk plot; format: biochemical
Description: as §1
The concentration of the substrate, L-tyrosine was given in a range of 0.01-1 mM, and the influence of the substrate concentration onto the recombinant human tyrosinase prepared by example 2 was evaluated. It is conducted by the same method of measuring the tyrosine hydroxylase activity explained in the experiment 1. The Km value of the recombinant human tyrosinase according to the present invention was calculated by the Lineweaver-Burk Plot (Lineweaver et al., J. Am, Chem. Soc., 56; 658-666, 1934).

[5] = read-out: Km value to L-tyrosine, cited from earlier work
[6] = literature value, Spritz et al. 1997; cited from earlier work
[7] = purification step: crude extract
[8] = purification step: His.bind resin chromatography
[9] = purification step: DEAE-Sephacel chromatography

Row | Total activity (dopa oxidase) [3, 8] [units] | Total activity (dopa oxidase) [3, 7] [units] | Total activity (dopa oxidase) [3, 9] [units] | Molecule | Increase of specific tyrosine hydroxylase activity of the His-bind purified enzyme compared to the crude extract [1] | Specific activity (tyrosine hydroxylase) [1, 7] [µmol/mg/h] | Purification degree (dopa oxidase specific activity relative to crude extract) [3, 8] [fold] | Specific activity (dopa oxidase) [3, 8] [units/mg] | Purification degree (dopa oxidase specific activity relative to crude extract) [3, 7] [fold] | Specific activity (dopa oxidase) [3, 7] [units/mg] | Purification degree (dopa oxidase specific activity relative to crude extract) [3, 9] [fold] | Specific activity (dopa oxidase) [3, 9] [units/mg] | other results
1 | 2977 | 6200 |  | Recombinant human tyrosinase of example 2 (pET-hTyrosinase(TM-)): Human tyrosinase with C-terminal transmembrane domain (55 amino acids) removed, SEQ ID NO: 2, expressed in E. coli with six … (protein, C-terminal His6 tag; Human tyrosinase) MHFPRACVSSKNLMEKECCPPWSGDRSPCGQLSGRGSCQNILLSNAPLGPQFPFTGVDDRESWPSVFYNRTCQCSGNFMGFNCGNCKFGFWGPNCTERRLLVRRNIFDLSAPEKDKFFAYLTLAKHTISSDYVIPIGTYGQMKNGSTPMFNDINIYDLFVWMHYYVSMDALLGGSEIWRDIDFAHEAPAFLPWHRLFLLRWEQEIQKLTGDENFTIPYWDWRDAEKCDICTDEYMGGQHPTNPNLLSPASFFSSWQIVCSRLEEYNSHQSLCNGTPEGPLRRNPGNHDKSRTPRLPSSADVEFCLSLTQYESGSMDKAANFSFRNTLEGFASPLTGIADASQSSMHNALHIYMNGTMSQVQGSANDPIFLLHHAFVDSIFEQWLRRHRPLQEVYPEANAPIGHNRESYMVPFIPLYRNGDFFISSKDLGYDYSYLQDSDPDSFQDYIKSYLEQASRI | about 52 times | 2.1 ± 0.05 | 46 | 807 | 1.0 | 17.7 |  |  | Specific activity (tyrosine hydroxylase) ([1]; purification step: His.bind resin chromatography (finally purified), listed as Recombinant human tyrosinase of example 2 (pET-hTyrosinase(TM-))): 108.3 ± 2.10 µmol/mg/h; Specific activity (tyrosine hydroxylase) ([1]; purification step: His.bind resin chromatography (finally purified), listed as recombinant human tyrosinase): 108.3 ± 2.10 µmol/mg/h; Km [2]: 340 µM; Specific dopa oxidase activity, times higher than recombinant human tyrosinase of comparative example 1 ([3]; vs Korean Patent Application No. 2001-0057379 (comparative example 1)): about 31 times; Specific dopa oxidase activity, times higher than recombinant human tyrosinase of comparative example 2 ([3]; vs Korean Patent Application No. 2002-0073728 (comparative example 2)): about 1.2 times; Affinity onto the substrate L-tyrosine, times higher [4]: ≥ 100 times; Km ([4]; L-tyrosine 0.01-1 mM, Lineweaver-Burk plot): 1.32 µM; Km to L-tyrosine, times lower than Km of earlier tyrosinases ([4]; at the most, vs 0.17 mM, 2.34 μM and 0.2 mM): about 130 times
2 | 1922 | 5700 | 4460 | Recombinant human tyrosinase of comparative example 2 (pET-hTyr): Recombinant human tyrosinase produced in E. coli with pET-hTyr vector by the method of Korean Patent Application No. 2002-0073728 (protein, UniProt P14679 19-529, looked up) Tyrosinase: HFPRACVSSKNLMEKECCPPWSGDRSPCGQLSGRGSCQNILLSNAPLGPQFPFTGVDDRESWPSVFYNRTCQCSGNFMGFNCGNCKFGFWGPNCTERRLLVRRNIFDLSAPEKDKFFAYLTLAKHTISSDYVIPIGTYGQMKNGSTPMFNDINIYDLFVWMHYYVSMDALLGGSEIWRDIDFAHEAPAFLPWHRLFLLRWEQEIQKLTGDENFTIPYWDWRDAEKCDICTDEYMGGQHPTNPNLLSPASFFSSWQIVCSRLEEYNSHQSLCNGTPEGPLRRNPGNHDKSRTPRLPSSADVEFCLSLTQYESGSMDKAANFSFRNTLEGFASPLTGIADASQSSMHNALHIYMNGTMSQVQGSANDPIFLLHHAFVDSIFEQWLRRHRPLQEVYPEANAPIGHNRESYMVPFIPLYRNGDFFISSKDLGYDYSYLQDSDPDSFQDYIKSYLEQASRIWSWLLGAAMVGAVLTALLAGLVSLLCRHKRKQLPEEKQPLLMEKEDYHSLYQSHL | about 49 times | 1.8 ± 0.05 | 49 | 699 | 1.0 | 14.3 | 5 | 69.7 | Specific activity (tyrosine hydroxylase) [1, 9]: 11.0 ± 0.12 µmol/mg/h; Specific activity (tyrosine hydroxylase) ([1]; purification step: His.bind resin chromatography (finally purified)): 88.0 ± 1.50 µmol/mg/h; Km ([5]; value from previous filing): 2.34 µM
3 |  |  |  | purified tyrosinase from human HeLa cell: Tyrosinase purified from human HeLa cell (Spritz et al., 1997) (protein, UniProt P14679 19-529, looked up) Tyrosinase: HFPRACVSSKNLMEKECCPPWSGDRSPCGQLSGRGSCQNILLSNAPLGPQFPFTGVDDRESWPSVFYNRTCQCSGNFMGFNCGNCKFGFWGPNCTERRLLVRRNIFDLSAPEKDKFFAYLTLAKHTISSDYVIPIGTYGQMKNGSTPMFNDINIYDLFVWMHYYVSMDALLGGSEIWRDIDFAHEAPAFLPWHRLFLLRWEQEIQKLTGDENFTIPYWDWRDAEKCDICTDEYMGGQHPTNPNLLSPASFFSSWQIVCSRLEEYNSHQSLCNGTPEGPLRRNPGNHDKSRTPRLPSSADVEFCLSLTQYESGSMDKAANFSFRNTLEGFASPLTGIADASQSSMHNALHIYMNGTMSQVQGSANDPIFLLHHAFVDSIFEQWLRRHRPLQEVYPEANAPIGHNRESYMVPFIPLYRNGDFFISSKDLGYDYSYLQDSDPDSFQDYIKSYLEQASRIWSWLLGAAMVGAVLTALLAGLVSLLCRHKRKQLPEEKQPLLMEKEDYHSLYQSHL |  |  |  |  |  |  |  |  | Specific activity with respect to tyrosine hydroxylase activity [6]: 22.3±0.01 μmol/1 g/h
4 | 26 | 136 | 64 | Recombinant human tyrosinase of comparative example 1 (pHis-hTyr): Recombinant human tyrosinase produced in E. coli with pHis-hTyr vector by the method of Korean Patent Application No. 2001-0057379 (protein, UniProt P14679 19-529, looked up, His tag) Tyrosinase: HFPRACVSSKNLMEKECCPPWSGDRSPCGQLSGRGSCQNILLSNAPLGPQFPFTGVDDRESWPSVFYNRTCQCSGNFMGFNCGNCKFGFWGPNCTERRLLVRRNIFDLSAPEKDKFFAYLTLAKHTISSDYVIPIGTYGQMKNGSTPMFNDINIYDLFVWMHYYVSMDALLGGSEIWRDIDFAHEAPAFLPWHRLFLLRWEQEIQKLTGDENFTIPYWDWRDAEKCDICTDEYMGGQHPTNPNLLSPASFFSSWQIVCSRLEEYNSHQSLCNGTPEGPLRRNPGNHDKSRTPRLPSSADVEFCLSLTQYESGSMDKAANFSFRNTLEGFASPLTGIADASQSSMHNALHIYMNGTMSQVQGSANDPIFLLHHAFVDSIFEQWLRRHRPLQEVYPEANAPIGHNRESYMVPFIPLYRNGDFFISSKDLGYDYSYLQDSDPDSFQDYIKSYLEQASRIWSWLLGAAMVGAVLTALLAGLVSLLCRHKRKQLPEEKQPLLMEKEDYHSLYQSHL |  |  | 65.0 | 26.0 | 1.0 | 0.4 | 3.5 | 1.4 | Km ([5]; value from previous filing or literature): 170 µM
